Key:
[1] = molecular target: T1, folate receptor alpha (FRα) on the surface of KB and T47D cells (UniProt P15328 25-234, limits assumed); experiment: cell-based or functional assay
[2] = molecular target: T1, folate receptor alpha (FRα) on the …; experiment: blocking of FRα on KB cells (2 µM) in a cytotoxicity assay
Protocol: The cell lines were cultured in culture medium as recommended by the cell supplier (ATCC or DSMZ). To each well of a flat bottom 96-well plate was added 1,000-2,000 cells in 100 μL of the culture medium. Conjugates were diluted into the culture medium using 3-fold dilution series and 100 μL were added per well. […] Control wells containing cells and the medium but lacking the conjugates, as well as wells containing medium only, were included in each assay plate. Assays were performed in triplicate for each data point. The plates were incubated at 37° C. in a humidified 6% CO₂ incubator for 5 to 6 days. Then the relative number of viable cells in each well was determined using either the Alamar Blue reagent according the manufacturer's protocol (Life Technologies) or the WST-8 based Cell Counting Kit-8 (Dojindo Molecular Technologies, Inc., Rockville, Md.). The apparent surviving fraction of cells in each well was calculated by first correcting for the medium background absorbance, and then dividing each value by the average of the values in the control wells (non-treated cells). The surviving fraction of cells was plotted against conjugate concentration in semi-log plots.

T1 sequence (P15328 25-234 limits assumed, stated change not applied): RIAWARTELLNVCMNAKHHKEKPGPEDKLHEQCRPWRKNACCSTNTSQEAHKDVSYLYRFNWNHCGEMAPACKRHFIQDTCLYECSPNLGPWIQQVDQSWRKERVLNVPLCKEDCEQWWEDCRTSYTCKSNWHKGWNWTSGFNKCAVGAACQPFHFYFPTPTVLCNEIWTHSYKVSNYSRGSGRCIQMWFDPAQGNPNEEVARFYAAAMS

B1: huMOV19-C442-D5 (antibody, IgG1, V domains shown)
VH: QVQLVQSGAEVVKPGASVKISCKASGYTFTGYFMNWVKQSPGQSLEWIGRIHPYDGDTFYNQKFQGKATLTVDKSSNTAHMELLSLTSEDFAVYYCTRYDGSRAMDYWGQGTTVTVSS
VL: DIVLTQSPLSLAVSLGQPAIISCKASQSVSFAGTSLMHWYHQKPGQQPRLLIYRASNLEAGVPDRFSGSGSKTDFTLTISPVEAEDAATYYCQQSREYPYTFGGGTKLEIKR
modifications: compound D5 linked through its maleimide to the thiol of the engineered Cys 442 (EU/OU numbering); average 2 mol D5/mol antibody
[1]
  fold loss of cytotoxicity when FRα is blocked by unconjugated huMOV19: 100 fold

B2: huMOV19 antibody (unconjugated) (antibody, human IgG1, V domains shown)
VH: QVQLVQSGAEVVKPGASVKISCKASGYTFTGYFMNWVKQSPGQSLEWIGRIHPYDGDTFYNQKFQGKATLTVDKSSNTAHMELLSLTSEDFAVYYCTRYDGSRAMDYWGQGTTVTVSS
VL: DIVLTQSPLSLAVSLGQPAIISCKASQSVSFAGTSLMHWYHQKPGQQPRLLIYRASNLEAGVPDRFSGSGSKTDFTLTISPVEAEDAATYYCQQSREYPYTFGGGTKLEIKR
notes: Human IgG1; also called humanized MOV19 antibody; M9346A; copies: 2 + 2
[2]
  binding result: binds

B3: huMOV19-C442-D4 (antibody, IgG1, V domains shown)
VH: QVQLVQSGAEVVKPGASVKISCKASGYTFTGYFMNWVKQSPGQSLEWIGRIHPYDGDTFYNQKFQGKATLTVDKSSNTAHMELLSLTSEDFAVYYCTRYDGSRAMDYWGQGTTVTVSS
VL: DIVLTQSPLSLAVSLGQPAIISCKASQSVSFAGTSLMHWYHQKPGQQPRLLIYRASNLEAGVPDRFSGSGSKTDFTLTISPVEAEDAATYYCQQSREYPYTFGGGTKLEIKR
modifications: compound D4 linked through its maleimide to the thiol of the engineered Cys 442 (EU/OU numbering); average 2 mol D4/mol antibody
[1]
  fold loss of cytotoxicity when FRα is blocked by unconjugated huMOV19: 100 fold

B4: huMOV19-sulfo-SPDB-D1 (antibody, V domains shown)
VH: QVQLVQSGAEVVKPGASVKISCKASGYTFTGYFMNWVKQSPGQSLEWIGRIHPYDGDTFYNQKFQGKATLTVDKSSNTAHMELLSLTSEDFAVYYCTRYDGSRAMDYWGQGTTVTVSS
VL: DIVLTQSPLSLAVSLGQPAIISCKASQSVSFAGTSLMHWYHQKPGQQPRLLIYRASNLEAGVPDRFSGSGSKTDFTLTISPVEAEDAATYYCQQSREYPYTFGGGTKLEIKR
modifications: compound D1 linked through a sulfo-SPDB linker to lysine side chain amino groups (positions and chain not stated)
[1]
  fold loss of cytotoxicity when FRα is blocked by unconjugated huMOV19: 100 fold

B5: huMOV19-D2 (antibody, V domains shown)
VH: QVQLVQSGAEVVKPGASVKISCKASGYTFTGYFMNWVKQSPGQSLEWIGRIHPYDGDTFYNQKFQGKATLTVDKSSNTAHMELLSLTSEDFAVYYCTRYDGSRAMDYWGQGTTVTVSS
VL: DIVLTQSPLSLAVSLGQPAIISCKASQSVSFAGTSLMHWYHQKPGQQPRLLIYRASNLEAGVPDRFSGSGSKTDFTLTISPVEAEDAATYYCQQSREYPYTFGGGTKLEIKR
modifications: compound D2 linked to lysine residues (positions and chain not stated)
[1]
  fold loss of cytotoxicity when FRα is blocked by unconjugated huMOV19: 100 fold

From patent publication US20210085800A1 (IMMUNOGEN, published 2021)
